Measured values from the nanobody polyreactivity screen of Harvey et al. (2022).

Assay: yeast display, Sf9 membrane polyspecificity reagent, FACS + sequencing; frameworks hold sequencing errors
Procedure, shortened: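 Genes from sorted yeast were amplified by colony PCR, read by MiSeq 2 × 250 sequencing and filtered on CDR length. These cells carried a synthetic nanobody library in Saccharomyces cerevisiae BJ5465 and were sorted by FACS into low and high (top ~1%) gates on anti-HA and streptavidin fluorescence. Polyreactivity is labelled according to the gate of origin.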

Sequence	polyreactivity (PSR sort gate)
QVQLVESGGGLVQAGGSLRLSCAASGRIFGANAMGWSRQAPGKERELVATITYVGTSTYYADSVKGRFTISRDNAKNTVYLQMNSLKPEDTAVYYCAADGYSVFAAILGEYFDYDYWGQGSQVTVSS	low polyreactivity
QVQLVESGGGLVQAGGSLRLSCAASGRIFGAYAMGWYRPAPGKERELVAAITGGDSTYYADSVKGRFTISRDNAKNTVYLQMNSLKPEDTAVYYCAADLTPEGVLQLGKYINYDSWGQGTQVTVSS	low polyreactivity
QVQLVESGGGLVQAGGSLRLSCAASGRIFGAYAMGWYRQAPGKERELVAAIDIRGGNTYYADSVKGRFTISRDNAKNTVYLQMNSLKPEDTAVYYCAADTWYDAYNYWGQGTQVNVSS	low polyreactivity
QVQLVESGGGLVQAGGSLRLSCAASGRIFGDNAMGWYRQAPGKERELVADITSSGGSTHYADSVKGRFTISRDNAKNNVYLQLNSLKPEDTEVYYCNADDYVYFDDGDYWGQGTQVTVSS	low polyreactivity
QVQLVESGGGLVQAGGSLRLSCAASGRIFGEYAMGWYSQAPGKERELVASISSGGNTNYADSVKGRFTISRDNAKNTFYLQMNSLKPEDTAVYYCAADDYATPQKMDYWGQGTQVTVSS	high polyreactivity
QVQLVESGGGLVQAGGSLRLSCAASGRIFGFYALGWYRQAAGKEWELVAAISQSRGSTYYADSVKGRFTISRDTANNTVYLQMNSLKPEDTAVYYCAKGYKYGKNIYYYWGQGTQVTVSS	high polyreactivity
QVQLVESGGGLVQAGGSLRLSCAASGRIFGFYAMGWYRQAPGKERELVARISSRGGSTYYADSVKGRFTISRDNAKNTVYLQMNSLKPEDTAVYYCAAYVWYHQYHYVPMDYWGQGTQVTVSS	high polyreactivity
QVQLVESGGGLVQAGGSLRLSCAASGRIFGFYAMGWYRQAPGKERELVARITLSGGRTYYADSVKGRFTISRDNAKNTVYLQMNSLKPEDTEVYYCAADSIGRLWGYGYWGQGTQVTVSS	high polyreactivity
QVQLVESGGGLVQAGGSLRLSCAASGRIFGGNAMGWYRQAPGKERELVAAITSGGGSTSYADSVKGRFTISRDNAKNTVYLQMNSLKPEDTAVYYCAAPATYGPFVIDTVYPRDGYWGQGTQVTVSS	low polyreactivity
QVQLVESGGGLVQAGGSLRLSCAASGRIFGGYAMGGYRQAPGKERELVAAISSRGTRTYYADSVKGRITISRDNAKNTVYLQMNSLKPEDTAVYYCATAYRGFHYSPLRELDYWGQGTQVTVSS	high polyreactivity
QVQLVESGGGLVQAGGSLRLSCAASGRIFGGYAMGWYRPAPGKERELVAAISGGGSTNYADSVKGRFTISRDNAKNTVYLQMNSLKPEDTAVYYCAAQYWSRRFYWYGYWGQGTQVTVSS	high polyreactivity
QVQLVESGGGLVQAGGSLRLSCAASGRIFGGYAMGWYRQAPGKERELVAAISARGGSTYYADSVKGRFTISRDNAKNTVYLQMNSLKPEDTAVYYCAAAEASSRGYYDYDYWGQGTQVTVSS	low polyreactivity
QVQLVESGGGLVQAGGSLRLSCAASGRIFGGYAMGWYRQAPGKERELVAAISNGGRTNYADSVKGRFTISRDNAKNTVYLQMISLKPEDTAVYYCAARNYKPYGYYRIYDSWGQGTQVTVSS	high polyreactivity
QVQLVESGGGLVQAGGSLRLSCAASGRIFGGYAMGWYRQAPGKERELVAAITFRSGTTYYADSVKGRFTISRDNAKNTVYLQMNSLKPEDTAVYYCAARWGPYAFTYVRTYDYWGQGTQVTVSS	low polyreactivity
QVQLVESGGGLVQAGGSLRLSCAASGRIFGGYAMGWYRQAPGKERELVAAITQSGGSTYYADSVKGRFTISRDNAKNTVYLQMNSLKPEDTAVYYCATYAWYIFGYWGQGTQVTVSS	low polyreactivity
QVQLVESGGGLVQAGGSLRLSCAASGRIFGGYAMGWYRQAPGKERELVAVITDGGSTNYADSVKRRFTISRDNAKNTVYLQMNSLKPEDTAVYYCAADSDGDEPPYDYWGQGTQVTVSS	low polyreactivity
QVQLVESGGGLVQAGGSLRLSCAASGRIFGGYVMGWYRQAPGKERELVAAISKRGDSTYYADSVKGRFTISRDNAKHTVYLQMNSLKPEDTAVYYCAAVRRGDRGTDMDYWGQGTQVTVSS	high polyreactivity
QVQLVESGGGLVQAGGSLRLSCAASGRIFGHNAMGWYRQAPGKERELVARISSTGSTKYADSVKGRFTISRDNAKNTVYFQMNSLKPEDTAVYYCAAVDRLRSIRYDYWGQGTQVTVSS	high polyreactivity
QVQLVESGGGLVQAGGSLRLSCAASGRIFGHYVMGWYRQAPGKERELVAAITWRGGSTYYADSVKGRFTISRDNAKNTVYLQMNSLKPEDTAVYYCNRALPGYGLRRDYWGQATQVTVSS	high polyreactivity
QVQLVESGGGLVQAGGSLRLSCAASGRIFGINGMGWYRQAPGKERELVAAITWIGGRTYYADSVKGRFTISRDNAKNTVYLQMNSLKPEDTAVYYCNAVYTQRFATYRRYDYWGQGTQVTVSS	high polyreactivity
QVQLVESGGGLVQAGGSLRLSCAASGRIFGIYAMGWFRLAPWKERELVARITGGGSTNYADSLKGRFTISRDNAKNTVYFQMTSLKPEDTAVYYCNTKKLPYAEGYWGQGTQVTVSS	low polyreactivity
QVQLVESGGGLVQAGGSLRLSCAASGRIFGIYAMGWYRHAPGKERELVATITWSGGSTYYADSVKGRFTISRDNAKNTVYLQMNSLKPEDTAVYYCAAYYRQFFGWYDYWGQGTQVTVSS	high polyreactivity
